B1: VHH_(GSDMD-2) with a C-terminal HA tag, expressed in THP-1 cells (VHH)
VHH: QVQLVESGGGLVQPGGSLRLSCVDSRSWINVYGANWYRQAPGKERELVAALTSGGTTNYADSVKGRFTISRDNAKNTVYLQMRDLKPEDTAVYYCNLERYTGSSVYPWGQGTQVTVSS
notes: Same nanobody as m3 and m12, other vector and host; also called VHH_(GSDMD-2)-HA; source: THP-1, lentiviral transduction, constitutive expression (pEF1α), in lysate; not shown: HA, C-terminal, kept
B2: VHH_(GSDMD-1) with a C-terminal HA tag, expressed in THP-1 cells (VHH)
VHH: QVQLVESGGALVQPGGSLRLSCSASGFTFSKYLMSWYRQAPGKERELVATITTAGGNTNYADSVKGRFTISRDNAKNTVYLQMNSLKPEDTAVYYCKASGGTIRTVNETYWGQGTQVTVSS
notes: Same nanobody as m2 and m11, other vector and host; also called VHH_(GSDMD-1)-HA; source: THP-1, lentiviral transduction, constitutive expression (pEF1α), in lysate; not shown: HA, C-terminal, kept
B3: VHH_(GSDMD-5)-HA (VHH)
VHH: QVQLVETGGGLVQPGGSLRLSCAASGFVFSINPMNWYRQAPGKERELVAYISMRGSTTNYADSVKGRFIISRDNAKNTLYLQMNSLKPEDTAVYYCNAPSRSVWGQGTQVTVSS
notes: also called VHH-HA; source: HEK293T, transfected (pCAGGS VHH-HA), in lysate; not shown: HA, C-terminal, kept
B4: VHH_(GSDMD-2)-HA (VHH)
VHH: B1 VHH
notes: as for B3
B5: VHH_(GSDMD-3)-HA (VHH)
VHH: QVQLVETGGGLVQPGGSLRLSCAASGFTLDIYNMGWFRQAPGKEREGVSCISSRYGTSTYYADSVKGRFTISRDNAKNTVYLQMNNLKPEDTAVYYCATVSWRFTTNQDVCLTPSVSGYWGQGTQVTVSS
notes: as for B3
B6: VHH_(GSDMD-1)-HA (VHH)
VHH: B2 VHH
notes: as for B3
B7: VHH_(GSDMD-5) with C-terminal HA-His6 (VHH)
VHH: B3 VHH
notes: pHEN6-based periplasmic expression vector, small scale (HA-His6); also called HA-His-tagged nanobody; source: E. coli WK6, periplasmic extract, purified (Ni-NTA, desalting); not shown: HA, C-terminal, kept; His6, C-terminal, kept
B8: VHH_(GSDMD-2) with C-terminal HA-His6 (VHH)
VHH: B1 VHH
notes: as for B7
B9: VHH_(GSDMD-6) with C-terminal HA-His6 (VHH)
VHH: QVQLVETGGGLVQPGGSLRLSCTASGFIFSANQMNWVRQAPGKGLEWLSGISTRGDTTSYADSVKGRFTISRDNAKNTLYLQMNSLQPDDTAVYFCARVCIRGPEPKLRCDDWGQGTQVTVSS
notes: as for B7
B10: VHH_(GSDMD-3) with C-terminal HA-His6 (VHH)
VHH: B5 VHH
notes: as for B7
B11: VHH_(GSDMD-1) with C-terminal HA-His6 (VHH)
VHH: B2 VHH
notes: as for B7
B12: VHH_(GSDMD-4) with C-terminal HA-His6 (VHH)
VHH: QVQLVESGGGLVQPGGSLRLSCAASGFTLDRHAIAWFRQAPGLEREGVVCTSSSGAITNTADSVKGRFTISRDDAKNTVYLQMNSLKPEDTAIYYCAVRELWTVQPICEPRPRAYAYWGQGTQVTVSS
notes: as for B7

T2 sequence (P57764 whole entry, the tested form may be a part): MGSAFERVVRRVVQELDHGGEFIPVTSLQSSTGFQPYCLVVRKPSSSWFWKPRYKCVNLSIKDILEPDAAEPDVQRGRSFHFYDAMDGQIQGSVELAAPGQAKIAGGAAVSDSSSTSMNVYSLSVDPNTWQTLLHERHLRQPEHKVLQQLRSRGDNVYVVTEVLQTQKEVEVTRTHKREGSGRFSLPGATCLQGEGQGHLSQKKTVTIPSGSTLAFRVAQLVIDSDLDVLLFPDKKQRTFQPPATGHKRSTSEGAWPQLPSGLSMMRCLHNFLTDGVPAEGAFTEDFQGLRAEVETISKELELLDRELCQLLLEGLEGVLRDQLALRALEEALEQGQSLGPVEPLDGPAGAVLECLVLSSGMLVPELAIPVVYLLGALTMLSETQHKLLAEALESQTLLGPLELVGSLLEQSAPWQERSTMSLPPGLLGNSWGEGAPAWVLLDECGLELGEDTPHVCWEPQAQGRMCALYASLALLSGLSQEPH
T1 sequence (P57764 whole entry, looked up, the tested form may be a part): as the sequence (P57764 whole entry, the tested form may be a part) above

One assay concerns the target T1, GSDMD^NT (N-terminal domain of gasdermin D released by caspase cleavage) (Homo sapiens (endogenous, THP-1), UniProt P57764).
T1 construct: also called processed GSDMD^NT; source: endogenous, lysate of PMA-differentiated THP-1 macrophages stimulated with MxiH
Briefly: non-reducing SDS-PAGE and immunoblot; PMA-differentiated THP-1 macrophages expressing HA-tagged nanobodies, stimulated with MxiH for 1 h; lysates in SDS-PAGE buffer without reducing agent; immunoblot with anti-GSDMD. As to conditions: partners not purified. On the technique in general: Immunoblotting shows a protein as a band on a membrane.
On to B1, for which the binding result is given as “binds”.
As for B2, the binding result is “binds”.

The next assay addresses T2, human GSDMD-Renilla luciferase fusion (Homo sapiens, UniProt P57764).
T2 construct: human gasdermin D (GSDMD) fused to Renilla luciferase; A GSDMD 4 A fusion was tested as well; also called Renilla-fused bait protein human GSDMD; source: HEK293T, transfected (pcDNA3.1-based vector), in lysate
Briefly: co-IP; LUMIER assay: HEK293T co-transfected with VHH-HA and Renilla luciferase fusions; lysis in 50 mM Hepes-KOH pH 7.9, 150 mM NaCl, 2 mM EDTA, 0.5% Triton X-100, 5% glycerol; VHH-HA captured on anti-HA-coated plates for one hour; luminescence of co-purified Renilla luciferase normalised to lysate. As to conditions: partners not purified.
With B3, the binding result is recorded as “binds”.
Still for that read-out and setting: then B4, with “binds”.
Same read-out and setting: the entry for B5 is “binds”; for B6 it is “binds”.

The next assay deals with T3, His-SUMO-GSDMD (Homo sapiens, UniProt P57764).
T3 construct: human gasdermin D (GSDMD), expressed from pET28 as His-SUMO-GSDMD; the recombinant protein is called full-length in the results; it was cleavable with the SUMO protease ULP1; also called gasdermin D; source: E. coli LOBSTR, purified (Ni-NTA, gel filtration); not shown: SUMO, N-terminal, kept
T3 sequence (P57764 whole entry): as the sequence (P57764 whole entry, the tested form may be a part) above
Briefly: ELISA; SUMO-GSDMD or SUMO in PBS immobilised on ELISA plates at 1 μg/mL overnight; HA-tagged nanobodies in 10% FBS/PBS, 10-fold dilution series from 100 nM to 1 pM; detected with anti-HA HRP and TMB. As to conditions: both partners purified. A general note: An ELISA detects its analyte on a solid surface through an enzyme-linked reagent.
B7: the binding result is recorded as “binds”.
In the case of B8, the binding result is “binds”.
As for B9, the binding result was “binds”.
Still for that read-out and setting: the entry for B10 is “binds”; for B11 it is “binds”.
Still for that read-out and setting: then B12, with “binds”.

The values are drawn from PMC11427689, “Antagonistic nanobodies implicate mechanism of GSDMD pore formation and potential therapeutic application” (Nature Communications, 2024).
